1 substance from publication PMC7380208 can be followed below.

This assay deals with Flt3 Receptor Interacting Lectin (FRIL) from Lablab purpureus (Lablab purpureus) (UniProt Q9ZTA9). The experiment in a line: SEC-MALS. On the technique in general: Size exclusion chromatography separates by hydrodynamic size, large species first.

As usually defined, the stoichiometry N is the number of molecules, sites or subunits per partner or assembly. “Flt3 Receptor Interacting Lectin (FRIL) from Lablab purpureus (from UniProt Q9ZTA9) (natural protein)” displayed a stoichiometry N of 4.
